Test results: PMC12629592, “MCAK recognizes the nucleotide-dependent feature at growing microtubule ends” (eLife, 2025)
Each block holds one molecule with its values, some of them ahead of it.

Legend:
[1] = molecular target: tubulin from porcine brain, polymerised into microtubules (porcine) (UniProt P02550); assay: single-molecule TIRF microscopy; single-molecule localisation at growing microtubule ends (tubulin 12 μM): 1 nM GFP-MCAK with 1 mM ATP, 10 nM EB1-GFP or 1 nM XMAP215-GFP, each alone; apparent constants
[2] = molecular target: tubulin from porcine brain, polymerised into microtubules (porcine) (UniProt P02550); assay: single-molecule TIRF microscopy; binding events on the lattice of dynamic microtubules (tubulin 16 μM) grown from immobilised GMPCPP seeds; 10 nM GFP-MCAK (10 nM K524A, 30 nM V298S); 1 mM ATP; BRB80 + 50 mM KCl, 35°C; apparent constants, per tubulin dimer
[3] = molecular target: tubulin from porcine brain, polymerised into microtubules (porcine) (UniProt P02550); assay: single-molecule TIRF microscopy; binding events at the growing plus-end of dynamic microtubules (tubulin 16 μM); GFP-MCAK with 1 mM ADP; apparent constants, per tubulin dimer
[4] = molecular target: tubulin from porcine brain, polymerised into microtubules (porcine) (UniProt P02550); assay: single-molecule TIRF microscopy; binding events on the lattice of dynamic microtubules (tubulin 16 μM); GFP-MCAK with 1 mM AMPPNP
[5] = molecular target: tubulin from porcine brain, polymerised into microtubules (porcine) (UniProt P02550); assay: single-molecule TIRF microscopy; binding events at the growing plus-end (end region 162 nm FWHM) of dynamic microtubules (tubulin 16 μM) grown from immobilised GMPCPP seeds; 10 nM GFP-MCAK (10 nM K524A, 30 nM V298S); 1 mM ATP; BRB80 + 50 mM KCl, 2 mM GTP, 35°C; apparent constants, per tubulin dimer
[6] = molecular target: tubulin from porcine brain, polymerised into microtubules (porcine) (UniProt P02550); assay: single-molecule TIRF microscopy; single-molecule localisation at growing microtubule ends (tubulin 12 μM): 1 nM GFP-MCAK with 1 mM ATP, 10 nM EB1-GFP or 1 nM XMAP215-GFP, each alone; apparent constants; remark: listed apart in the source
[7] = molecular target: tubulin from porcine brain, polymerised into microtubules (porcine) (UniProt P02550); assay: single-molecule TIRF microscopy; binding events at the growing plus-end of dynamic microtubules (tubulin 16 μM); GFP-MCAK with 1 mM AMPPNP; apparent constants, per tubulin dimer
[8] = molecular target: the molecule itself; assay: SEC; Superose 6 Increase 5/150 GL; BRB80 with 50 mM KCl and 1 mM ATP
[9] = molecular target: tubulin from porcine brain, polymerised into microtubules (porcine) (UniProt P02550); assay: single-molecule TIRF microscopy; binding events at the growing plus-end of dynamic microtubules (tubulin 16 μM); GFP-MCAK without nucleotide (APO); apparent constants, per tubulin dimer
[10] = molecular target: tubulin from porcine brain, polymerised into microtubules (porcine) (UniProt P02550); assay: single-molecule TIRF microscopy; binding events at the minus-ends of dynamic microtubules; GFP-MCAK, 1 mM ATP; BRB80 + 50 mM KCl, 35°C; apparent constants, per tubulin dimer

- Kd [1]: 722 µM
Molecule: EB1-GFP (from UniProt Q15691 1-268) (natural protein)

- Kd [2]: 1060 µM
- dwell time [2]: 0.62 s
- kon [2]: 2800 M⁻¹ s⁻¹
- Kd [3]: 163 µM
- RE/L (kon at the plus-end over kon on the lattice) [3]: 2
- dwell time [3]: 0.46 s
- dwell time [4]: 1.46 s
- Kd [5]: 69 µM
- dwell time [5]: 0.75 s
- effective dissociation constant (the microtubule end taken as one multivalent receptor, end length 160 nm) [5]: 260 nM
- kon [5]: 22600 M⁻¹ s⁻¹
- dwell time of distally distributed molecules at the growing end [6]: 0.8 s
- dwell time of proximally distributed molecules at the growing end [6]: 0.7 s
- Kd [7]: 61 µM
- RE/L (kon at the plus-end over kon on the lattice) [7]: 11
- dwell time [7]: 3.32 s
- Kd [9]: 1.8 µM
- RE/L (kon at the plus-end over kon on the lattice) [9]: 2
- dwell time [9]: 1.89 s
- Kd [10]: 40 µM
- RE/L (kon at the end over kon on the lattice) [10]: 13
B1: GFP-MCAK (mitotic centromere-associated kinesin, wild type) (enzyme, UniProt Q99661 1-725, looked up)
chain: MAMDSSLQARLFPGLAIKIQRSNGLIHSANVRTVNLEKSCVSVEWAEGGATKGKEIDFDDVAAINPELLQLLPLHPKDNLPLQENVTIQKQKRRSVNSKIPAPKESLRSRSTRMSTVSELRITAQENDMEVELPAAANSRKQFSVPPAPTRPSCPAVAEIPLRMVSEEMEEQVHSIRGSSSANPVNSVRRKSCLVKEVEKMKNKREEKKAQNSEMRMKRAQEYDSSFPNWEFARMIKEFRATLECHPLTMTDPIEEHRICVCVRKRPLNKQELAKKEIDVISIPSKCLLLVHEPKLKVDLTKYLENQAFCFDFAFDETASNEVVYRFTARPLVQTIFEGGKATCFAYGQTGSGKTHTMGGDLSGKAQNASKGIYAMASRDVFLLKNQPCYRKLGLEVYVTFFEIYNGKLFDLLNKKAKLRVLEDGKQQVQVVGLQEHLVNSADDVIKMIDMGSACRTSGQTFANSNSSRSHACFQIILRAKGRMHGKFSLVDLAGNERGADTSSADRQTRMEGAEINKSLLALKECIRALGQNKAHTPFRESKLTQVLRDSFIGENSRTCMIATISPGISSCEYTLNTLRYADRVKELSPHSGPSGEQLIQMETEEMEACSNGALIPGNLSKEEEELSSQMSSFNEAMTQIRELEEKAMEELKEIIQQGPDWLELSEMTEQPDYDLETFVNKAESALAQQAKHFSALRDVIKALRLAMQLEEQASRQISSKKRPQ
notes: MCAK (mitotic centromere-associated kinesin, kinesin-13); GFP-MCAK monomer printed as 110 kDa; Dimer by size-exclusion chromatography; Used with 1 mM ATP, AMPPNP, ADP or without nucleotide (APO); Purification adapted from Helenius et al., 2006; The printed residue numbers (K524, V298, T537) and the 110 kDa mass fit whole human MCAK (surmised); also called MCAK‧ATP; MCAK‧AMPPNP; source: Sf9, …
- stoichiometry N [8]: 2
